# According to the RNAGym collection of RNA variant scans (doi:10.1073/pnas.2313332121):
# Fewer inactive variants are shown than the library holds.
# B1: TPR 5TU (parent)
# chain: GGAUCUUCUCGAUCUAACAAAAAAGACAAAUCUGCCACAAAGCUUGAGAGCAUCUUCGGAUGCAGAGGCGGCAGCCUUCGGUGGCGCGAUAGCGCCAACGUUCUCAACUAUGACACGCAAAACGCGUGCUCCGUUGAAUGGAGUUUAUCAUG
# Variants of: B1
# Test: polymerase ribozyme fitness, log enrichment relative to wild type (log ratio); higher = more active; in vitro selection for triplet polymerase activity
# Procedure, shortened: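 Mutant libraries were PCR-built and transcribed for each subunit of a heterodimeric triplet polymerase ribozyme and selected for one round in triplicate at −7 °C, frozen, before gel excision of extended constructs and streptavidin-bead capture. Input and output libraries were Illumina-sequenced, keeping genotypes with ≥10 input reads and ≥1 read per output. Fitness is a logarithmic ratio of genotype to wild-type enrichment, in base 2, using inverse-variance-weighted replicate averages.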
row,Variant,polymerase ribozyme fitness (log ratio)
1,GGAUCUUCUCGAUCUAACAAUAAAGACAAAUCUGCCACAAAGCUUGAGAGCAUCUUCGGAUGCAGAGGCGGCAGCCUUCCGUGGAGCGAUAGCGCCAACGUUCUCAACUAUGACACGCAAAACGCGAGCUCCGUUGAAUGGAGUUUAUCAUG [A21U G80C C85A U127A],≤ -4.2
2,GGAUCUUCUCGAUCUAACAAAAAAGACAAAUCUGCCACAAAGCUUGAGAGCAUCAUCGGAUGCAGAGGCGGCAGCCUUCGGUGUCGCGAUAGCGCCAACGUUCUCAACUAUGACACGCAAAACGCGUUCUCCGCUGAAUGGAGUUUAUCAUG [U55A G84U G128U U134C],-4.17
3,GGAUCUUCUCGAUCUAACAAAAAAGACAAAUCUGCCACAAAGCUAGAGAGCAUUUUCGGAAGCAGAGGCGGCAGCCUUCGGUGGUGCGAUAGCGCCAACGUUCUCAACUAUGACACGCAAAACGCGUGCUCCGUUGAAUGGAGUUUAUCAUG [U45A C54U U61A C85U],≤ -4.2
4,GGAUCUUCUCGACCUUACAAAAAAGACAAAUCUGCCACAAAGCUUGAGAGCAUCUUCGGAUGCAGAGGCGGCAGCCUUCGGUGGCGCGAUAGCGCCAACGUUCUCAACUAUGACACGCAAAACGCGUGCUCCGUUGAAUGGAGUUUAUCAUG [U13C A16U],-0.079
5,GGAUCUUCUCGAUCUUACAAAAAAGACAAAUCUGCCACAAAGCUUGAGAGCAUCUUCGGAUGCAGAGGCGGCAGCCUUCGGUGGCGCGAUAGCGCCAACGUUCUCAACUAUGACACGCAAAACGCGUGCUCCGUUGAAUGGACUUUAUCAUG [A16U G143C],-3.63
6,GGAUCUUCUCGAUCUAACAAAAAAGACAAAUCUGCCACAAAGCUUGAGAGCAUCUUCGAAUGCAGAGGCGGCAGCCUUCGGUGGCGUGAUAGCGCCAACGUUCUCAACUAUGACACGCAAUACGCGUGCUCCGUUGAAUGGAGUUUAUCAUG [G59A C87U A121U],-0.901
7,GGAUCUUCUCGAUGUAACAAAAAAGACAAAUCUGACACAAAGCUUGAGAGCAUCUUCGGGUGCAGAGGCGGCAGCCUUCGGUGGCGCGAUAGCGCCAACGUUCUCAACUAUGACACGCAAAACGCGUGCCCCGCUGAAUGGAGUUUAUCAUG [C14G C35A A60G U130C U134C],≤ -4.2
8,GGAUCUUCUCGAGCUAACAAAAAAGACAAAUCUGCCACAAAGCUUGAGAGCAUCUUCGGAUGCAGAGGCGGCAGCCUUCGGUGGCGCGAUAGCGCUUACGUUCUCAACUAUGACACGCAAAACGCGUGCUCCGUUGUAUGGAGUUUAUCAUG [U13G C96U A97U A137U],≤ -4.2
9,GGAUCUUCUCGAUCUAAUAAAAAAGACAAAUCUGCCACAAAGCUUGAGAGCAUCUUCGGAUGCAGAGGCGGCAGCCUUCGGUGGCGCGAUGGCGCCAACGUUCUCAACUAUGACACGCAAAACGCGUGCUCCGUUGAAUGGAGUUUAUCAUG [C18U A91G],-3.63
10,GGAUCUUCUCGAUCUAACAAAAAAGACAAAUUUGCCCCAAAGCUUGAGAGCAUCUUCGGAUGCAGAGACGGCAGCCUUCAGUGGCGUGAUAGCGGCAACGUUCUCAACUAUGACACGCAAAACGCGUGCUCCGUUGAAUGGAGUUUAUCAUG [C32U A37C G68A G80A C87U C95G],≤ -4.2
11,GGAUCUUCUCGAUCUAACAAAAAAGACAAAUCUGCCACAAAGCUUGAGAGCCUCUUCGGAUGCAGAGGCGGCAGCCUUCGGUGGCGCGAUAGCGCCUACGUUCUCAACUAUGACACGCAAAACGCGUGCUCCGUUGAAUGGAGUUUAUCAUG [A52C A97U],-1.59
12,GGAUCUUCUCGAUCUAACAAACAAGAUAAAUCUGCCACAAAGCUUGAGACCAUCUUCGGAUGCAGAGGCGGCAGCCUUCUGUGGCGCGAUAGCGCCAACGUUCUCAACUAUGACACGCAAAACGCGUGCUCCGUUGAAUGGAGGUUAUCAUG [A22C C27U G50C G80U U144G],≤ -4.2
13,GGAUCUUCUCGAUCUAACAAAAAAGACAAAUCUGCCACAAAGCUUGAGAGCAUCUUCGGAUGCAGAGGCGGCAGCCUUCGGUGGCGCGAUAGCACCUACGUUCUCAACUAUGACACGCAAAACGCGUGCUCCGUUGAAUGGAGUUUAUCAUG [G94A A97U],-1
14,GGAUCUUCUCGAUCUAACAAAAAAGACAAAUCUGCCACAAAGCUUGAGAGCAUCUUCGGAUGCAGAGGCGGCAGCCUUCGGUGGCGCGAUAGCGCCAACGUUCUCAACUAUGACACGCAAAAUGCGUGCUCCGUUGAAUGGAGUUUAUCAUG [C123U],0.225
15,GGAUCUUCUCGAUCUAACAAAAAAGACAAAUCUGCCACAAAGCUUGAGAGCAUCUUCCGAUGCAGGGGCGGCAGCCUUCGGUGGCGCGAUAGCGCCAACGUUCUCAACUAUGACACGCAAAACGCGUGCUCCGUUGAAUUGAGUUUAUCAUG [G58C A66G G140U],≤ -4.2
16,GGAUCUUCUCGAUCUAACAAAAAAGACAAAUCUGCCACAAAGCUUGAGAUCAUCUUCGGAUGCAGAGGCGGCAGCCUUCGGUGGCGCGAUAGCGCUAAAGUUGUCAACUAUGACACGCAAAACCCGUGAUCCGUUGAAUGGAGGUUAUCAUG [G50U C96U C99A C103G G124C C129A U144G],≤ -4.2
17,GGAUCUUCUCGAUCUGAUAAAAAAGACAAUUCUGUCACAAAGCUUGAGAGCAUCAUCGGAUGCAGAGGCGCCAGCCUUCGGUGGCGCGAUAGUGCCCACGUUCUCAACUAUGACAAGCAAAACGCGUGCUCCGUUGAAUGUAGUUUAUCAUG [A16G C18U A30U C35U U55A G71C C93U A97C C116A G141U],≤ -4.2
18,GGAUCUUCUCGAUCUAACAUAAAAGACAAAUCUGCCACAAAGCUUGAGAGCAUCUUCGGAUGCAGAGGCGGCAGCCUUCGGUGGCGCGAUAGCGCCAACGAUCUCAACUAUGACACGCAAAACGCGUGCUCCGUUGAAUGGAGUUUAUCAUG [A20U U101A],-2.4
19,GGAUCUUCUCGAUCUAACUAAAAAGACAAAUCUGCCACAAAGCUUGCGAGCAUCGUCGGAUGCAGAGGCGGCAGCCUUCGGUGGCGUGAUAUCGCCAACGCUCUCAACUAUGACACGCAAAACGCGUGCUCCGUUGAAUGGAGUUUAUCAUG [A19U A47C U55G C87U G92U U101C],-2.81
